From PMC3985065 (Protein expression and purification, 2014)
Values belong to the molecule of their own block, whether it stands above or below them.

Legend:
[1] = biological target: T1, mouse glycine N-acyltransferase (mGLYAT) (Mus musculus, UniProt Q91XE0); experiment: DTNB assay of CoA-SH release, […] benzoyl-CoA and […] glycine; assay type: biochemical
T1 sequence (Q91XE0 1-296): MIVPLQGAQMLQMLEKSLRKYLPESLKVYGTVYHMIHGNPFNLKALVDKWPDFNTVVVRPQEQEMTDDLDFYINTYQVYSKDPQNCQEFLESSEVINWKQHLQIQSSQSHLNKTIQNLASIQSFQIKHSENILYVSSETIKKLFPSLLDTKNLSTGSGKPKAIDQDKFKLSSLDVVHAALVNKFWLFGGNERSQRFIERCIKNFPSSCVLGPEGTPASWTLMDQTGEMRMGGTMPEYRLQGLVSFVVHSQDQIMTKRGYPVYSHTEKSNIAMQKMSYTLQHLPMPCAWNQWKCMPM

purified protein [2] = substrate: CC(=O)SCCNC(=O)CCNC(=O)[C@H](O)C(C)(C)COP(=O)(O)OP(=O)(O)OC[C@H]1O[C@@H](n2cnc3c(N)ncnc32)[C@H](O)[C@@H]1OP(=O)(O)O; experiment: purified protein; details: amino acceptor substrate
purified protein [3] = substrate: CC(C)(COP(=O)(O)OP(=O)(O)OC[C@H]1O[C@@H](n2cnc3c(N)ncnc32)[C@H](O)[C@@H]1OP(=O)(O)O)[C@@H](O)C(=O)NCCC(=O)NCCSC(=O)c1ccccc1; experiment: purified protein; assay type: biochemical, Mus musculus; details: amino acceptor substrate
purified protein [4] = substrate: CCOC(=O)CN; experiment: purified protein; assay type: biochemical, Mus musculus; details: benzoyl-CoA (co-substrate) amino donor substrate
purified protein [5] = substrate: COC(=O)CN; experiment: purified protein; assay type: biochemical, Mus musculus; details: benzoyl-CoA (co-substrate) amino donor substrate
purified protein [6] = substrate: CCCC(=O)SCCNC(=O)CCNC(=O)[C@H](O)C(C)(C)COP(=O)(O)OP(=O)(O)OC[C@H]1O[C@@H](n2cnc3c(N)ncnc32)[C@H](O)[C@@H]1OP(=O)(O)O; experiment: purified protein; assay type: biochemical, Mus musculus; details: amino acceptor substrate
purified protein [7] = substrate: CCCCCC(=O)SCCNC(=O)CCNC(=O)[C@H](O)C(C)(C)COP(=O)(O)OP(=O)(O)OC[C@H]1O[C@@H](n2cnc3c(N)ncnc32)[C@H](O)[C@@H]1OP(=O)(O)O; experiment: purified protein; assay type: biochemical, Mus musculus; details: amino acceptor substrate
purified protein [8] = substrate: NCC(=O)O; experiment: purified protein; assay type: biochemical, Mus musculus; details: benzoyl-CoA (co-substrate) amino donor substrate

IC50 [1]: 58 ± 4.9 mM
Molecule: O=C(O)CO [Glycolic acid]

IC50 [1]: 0.021 ± 0.0034 mM
Molecule: CCCCCCCC/C=C\CCCCCCCC(=O)SCCNC(=O)CCNC(=O)[C@H](O)C(C)(C)COP(=O)(O)OP(=O)(O)OC[C@H]1O[C@@H](n2cnc3c(N)ncnc32)[C@H](O)[C@@H]1OP(=O)(O)O [Oleoyl-CoA]

B1: mouse glycine N-acyltransferase (mGLYAT) (Mus musculus) (protein)
chain: MIVPLQGAQMLQMLEKSLRKYLPESLKVYGTVYHMIHGNPFNLKALVDKWPDFNTVVVRPQEQEMTDDLDFYINTYQVYSKDPQNCQEFLESSEVINWKQHLQIQSSQSHLNKTIQNLASIQSFQIKHSENILYVSSETIKKLFPSLLDTKNLSTGSGKPKAIDQDKFKLSSLDVVHAALVNKFWLFGGNERSQRFIERCIKNFPSSCVLGPEGTPASWTLMDQTGEMRMGGTMPEYRLQGLVSFVVHSQDQIMTKRGYPVYSHTEKSNIAMQKMSYTLQHLPMPCAWNQWKCMPM
Km (purified protein [2]): 209 ± 43 µM
kcat (purified protein [2]): 0.8 s⁻¹
kcat/Km (purified protein [2]): 3800 M⁻¹ s⁻¹
Km (purified protein [3]): 9.4 ± 14 µM
kcat (purified protein [3]): 4.2 ± 0.25 s⁻¹
kcat/Km (purified protein [3]): 450000 ± 27000 M⁻¹ s⁻¹
Km (purified protein [4]): 9700 ± 1700 µM
kcat (purified protein [4]): 0.57 ± 0.023 s⁻¹
kcat/Km (purified protein [4]): 59 ± 2.3 M⁻¹ s⁻¹
Km (purified protein [5]): 29000 ± 9100 µM
kcat (purified protein [5]): 1 ± 0.12 s⁻¹
kcat/Km (purified protein [5]): 35 ± 4.1 M⁻¹ s⁻¹
Km (purified protein [6]): 52 ± 7.9 µM
kcat (purified protein [6]): 15 ± 0.43 s⁻¹
kcat/Km (purified protein [6]): 290000 ± 8200 M⁻¹ s⁻¹
Km (purified protein [7]): 45 ± 3.0 µM
kcat (purified protein [7]): 4.6 ± 0.085 s⁻¹
kcat/Km (purified protein [7]): 100000 ± 1900 M⁻¹ s⁻¹
Km (purified protein [8]): 6100 ± 1200 µM
kcat (purified protein [8]): 3.2 ± 0.12 s⁻¹
kcat/Km (purified protein [8]): 520 ± 20 M⁻¹ s⁻¹
